One protein from patent publication US6008029A, “Purified coprinus laccases and nucleic acids encoding the same” (Novo Nordisk Biotech Inc., priority 1996, dated 1999) can be followed below.

By Km is commonly meant the concentration of substrate that gives half-maximal velocity. Broadly, the kcat is the maximal rate divided by the concentration of active sites.

Substrate in data set [1]: CCn1c(=NN=c2sc3cc(S(=O)(=O)O)ccc3n2CC)sc2cc(S(=O)(=O)O)ccc21
Nature of the data set: purified protein, by the assay type. The settings on record: other: pH 5.3, ABTS oxidation, 20.0 °C.

Substrate in data set [2]: COc1cc(C=NN=Cc2cc(OC)c(O)c(OC)c2)cc(OC)c1O
Nature of the data set: purified protein, by the assay type. In kind it is biochemical, Coprinus cinereus. The settings on record: other: pH 5.3, syringaldazine oxidation, 20.0 °C.

B1: recombinant Coprinus cinereus laccase Lcc1 (SEQ ID NO:27), expressed in Aspergillus oryzae (Coprinopsis cinerea) (protein)
chain: QIVNSVDTMTLTNANVSPDGFTRAGILVNGVHGPLIRGGKNDNFELNVVNDLDNPTMLRPTSIHWHGLFQRGTNWADGADGVNQCPISPGHAFLYKFTPAGHAGTFWYHSHFGTQYCDGLRGPMVIYDDNDPHAALYDEDDENTIITLADWYHIPAPSIQGAAQPDATLINGKGRYVGGPAAELSIVNVEQGKKYRMRLISLSCDPNWQFSIDGHELTIIEVDGQLTEPHTVDRLQIFTGQRYSFVLDANQPVDNYWIRAQPNKGRNGLAGTFANGVNSAILRYAGAANADPTTSANPNPAQLNEADLHALIDPAAPGIPTPGAADVNLRFQLGFSGGRFTINGTAYESPSVPTLLQIMSGAQSANDLLPAGSVYELPRNQVVELVVPAGVLGGPHPFHLHGHAFSVVRSAGSSTYNFVNPVKRDVVSLGVTGDEVTIRFVTDNPGPWFFHCHIEFHLMNGLAIVFAEDMANTVDANNPPVEWAQLCEIYDDLPPEATSIQTVVRRAEPTGFSAKFRREGL
Turning to B1, in data set [1], the Km was 23 ± 3 µM and the catalytic constant (kcat) came to 18.17 ± 0.5 s⁻¹. In addition, in data set [2], the Km was determined as 26 ± 6 µM and the kcat is 3 ± 0.333 s⁻¹.
